From article PMC3519889

Tests used:
[1] = test system: NarP (SO3982), phosphorylated (Shewanella oneidensis); test: EMSA; conditions: 100 mM Tris/HCl pH 7.4, 20 mM KCl, 10 mM MgCl2, 2 mM DTT, 10% glycerol, 15 C, 60 min, ~2 nM probe, 2 ug poly(dI·dC); 4.8% native PAGE
[2] = test system: NarP(D57N) (NarP#) (Shewanella oneidensis); test: EMSA; conditions: no binding up to 2 uM, 100 mM Tris/HCl pH 7.4, 20 mM KCl, 10 mM MgCl2, 2 mM DTT, 10% glycerol, 15 C, 60 min, ~2 nM probe, 2 ug poly(dI·dC), 4.8% native PAGE

nrfA promoter fragment was tested. Which binding [1] did it give?
The binding was under 0.25 µM.

And the binding ([2]; not phosphorylation-treated)?
The binding was over 2 µM.

What about the binding ([2]; treated with NarQ51-585 and ATP) of the same substance?
Its binding is over 2 µM.
